Test results as given in patent publication US20240034792A1 (HARBOUR BIOMED SHANGHAI, published 2024).
Substitutions are numbered along the chain they refer to.

B1: PR005090 (VHH)
VHH: EVQLVETGGGLIQPGGSLRLSCAASGFNVSSHYMSWVRQAPGKGREWVSIIDGGGSTYYADSVKGRFTISRDNSKNRLYLQMNSLRAEDTAMYYCARATAVAEKNGYNYPFNYWGQGTLVTVSS
notes: Monovalent single-domain (VH) antibody with Flag-6His tag
B2: PR005141 (VHH)
VHH: B1 VHH with S31Y, H32F, G53K, T57G, D61A, A100E, A102R
notes: Monovalent single-domain (VH) variant of PR002481 with Flag-6His tag
B3: PR005145 (VHH)
VHH: B1 VHH with S31F, H32Y, G53K, A60G, A100E, A102R
notes: as for B2
B4: PR005142 (VHH)
VHH: B1 VHH with S31F, H32Y, G53K, T57G, D61A, A100E, A102R
notes: as for B2
B5: PR005102 (VHH)
VHH: B1 VHH with G53R
notes: as for B2
B6: PR005149 (VHH)
VHH: B1 VHH with G53K, G54A, T57G, A100E, A102R, N105Q
notes: as for B2
B7: PR005098 (VHH)
VHH: B1 VHH with A100Q, A102R, N105G
notes: as for B2
B8: PR005096 (VHH)
VHH: B1 VHH with A100R, A102P, N105G
notes: as for B2
B9: PR005097 (VHH)
VHH: B1 VHH with A102R
notes: as for B2
B10: PR005093 (VHH)
VHH: B1 VHH with A100R, A102R, K104A
notes: as for B2
B11: PR005101 (VHH)
VHH: B1 VHH with G53K, S56G
notes: as for B2
B12: PR005146 (VHH)
VHH: B1 VHH with S31F, G54A, T57G, D61A, A100M, A102R, N105Q
notes: as for B2
B13: PR005147 (VHH)
VHH: B1 VHH with S31Y, H32Y, G53K, G54A, A60G, D61A, A100M, A102R
notes: as for B2
B14: PR005099 (VHH)
VHH: B1 VHH with G53S, G54A
notes: as for B2
B15: PR005100 (VHH)
VHH: B1 VHH with G53R, T57K
notes: as for B2
B16: PR005144 (VHH)
VHH: B1 VHH with S31F, H32Y, G53K, G54S, D61A, A100E, A102R
notes: as for B2
B17: PR005148 (VHH)
VHH: B1 VHH with G53K, G54A, T57G, D61A, A100E, A102R
notes: as for B2
B18: PR005150 (VHH)
VHH: B1 VHH with H32F, G53K, G54A, A60G, D61A, A100E, A102R, N105Q
notes: as for B2
B19: PR002478 (antibody, human IgG1, V domains shown)
VH: B1 VHH with H32N, R45L, D52H, G53S, M92V, T99I
notes: Heavy-chain-only antibody (HCAb), human IgG1 Fc; two heavy chains, no light chain; also called R4004P548A8
B20: PR002477 (antibody, human IgG1, V domains shown)
VH: B1 VHH with R45L, D52H, G53S, M92V, T99I
notes: Heavy-chain-only antibody (HCAb), human IgG1 Fc; two heavy chains, no light chain; also called R4004P547H9
B21: PR002473 (antibody, human IgG1, V domains shown)
VH: B1 VHH with R45L, D52H, G53S, R86I, M92V, T99I
notes: Heavy-chain-only antibody (HCAb), human IgG1 Fc; two heavy chains, no light chain; also called R4004P541H11
B22: PR002475 (antibody, human IgG1, V domains shown)
VH: B1 VHH with H32N, R45L, D52H, G53S, R77T, M92V, T99I
notes: Heavy-chain-only antibody (HCAb), human IgG1 Fc; two heavy chains, no light chain; also called R4004P547D9

Target: T1, Human PD-1 protein with histidine and avi tags (ACRO Biosystems, PD1-H82E4) (human, UniProt Q15116 25-167)
T1 construct: Captured on streptavidin (SA) sensors in the BLI assay; not shown: histidine and avi tags
Experiment: BLI (Octet Red96e), PD-1 captured on SA sensor, 1:1 local fit
Protocol: (§1) Human PD-1 proteins with histidine and avi tags were purchased from the manufacturer ACRO Biosystems (Cat#: PD1-H82E4), and the assay buffer was 1× kinetics buffer (diluted from 10× kinetics buffer (ForteBio, Cat#: 18-1105)) for kinetic assay and dilution of antigens and antibodies. The binding kinetics between the antigen and the antibody was analyzed by the biolayer interferometry (BLI) technique using an Octet molecular interaction analyzer (ForteBio, model: Octet Red96e).
(§2) When the binding kinetics between the antigen and the antibody was determined, the rotation speed of the sensor was set at 1000 rpm/min. The eight SA sensors placed in a column were first equilibrated in an assay buffer for 10 min and then used to capture PD-1 at a capture height of 0.5 nm. Thereafter, the SA sensors were equilibrated in the assay buffer for 100 s, and then were associated with each antibody diluted to a single concentration and with a row of blank buffer wells for 180 s, followed by dissociation for 600 s. A new column of SA sensors were used in each cycle.
(§3) When data analysis was performed using Octet Data Analysis software (Fortebio, version 11.0), the reference signals were subtracted by a single reference mode (reference well), the data were fitted by a “1:1 Local fitting” method, and the kinetic parameters of the binding of the antigen to the antibody were calculated to obtain kon (1/Ms) values, kdis (1/s) values and KD (M) values.

T1 sequence (Q15116 25-167 limits assumed): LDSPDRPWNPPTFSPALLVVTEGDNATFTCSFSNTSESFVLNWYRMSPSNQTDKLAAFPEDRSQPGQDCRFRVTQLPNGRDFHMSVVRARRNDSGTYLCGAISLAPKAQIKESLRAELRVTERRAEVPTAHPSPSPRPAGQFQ

| Kd [nM] | koff [s⁻¹] | kon [M⁻¹ s⁻¹] | Binder |
| --- | --- | --- | --- |
| 20.8 | 0.00114 | 55000 | B1 |
| 1.49 | 7.75e-05 | 52100 | B2 |
| 5.31 | 5.24e-05 | 9860 | B3 |
| 6.76 | 5.55e-05 | 8200 | B4 |
| 5.99 | 0.000268 | 44800 | B5 |
| 14 | 4.83e-05 | 3450 | B6 |
| 5.88 | 0.000394 | 67100 | B7 |
| 10.4 | 0.000599 | 57900 | B8 |
| 13.9 | 0.000784 | 56600 | B9 |
| 4.82 | 0.000636 | 132000 | B10 |
| 58.8 | 0.000173 | 2940 | B11 |
| 1020 | 0.000605 | 593 | B12 |
| 16.5 | 2.74e-05 | 1660 | B13 |
| 4.32 | 0.000455 | 105000 | B14 |
| 11.6 | 0.000301 | 26000 | B15 |
| 4.51 | 4.52e-05 | 10000 | B16 |
| 1.21 | 5.72e-05 | 47200 | B17 |
| < 0.001 | < 1e-07 | 59000 | B18 |

Target: T2, Human PD-1 expressed on CHO-K1 cells (CHO-K1/hPD-1) (human, UniProt Q15116 25-288)
T2 construct: whole, on cells; also called CHO-K1 cells overexpressing human PD-1
Experiment: FACS blocking of biotin-labeled human PD-L1 binding to CHO-K1-hPD-1 cells
Protocol: Briefly, the CHO-K1-hPD-1 cells were digested and resuspended in an F-12K complete medium, and the cell density was adjusted to 1×10⁶ cells/mL. The cells were seeded in a 96-well V-bottom plate (Corning, Cat#3894) at 100 μL/well, followed by the addition of the test antigen-binding proteins with concentrations 2-fold of final concentrations obtained by 3-fold or 5-fold gradient dilution were each added at 100 μL/well. The mixtures were well mixed. The maximum final concentration of the antigen-binding proteins was 100 nM or 300 nM. A total of 8 concentrations were set. hIgG was used as a control. The cells were incubated at 4° C. for 1 h away from light. […] The cells were incubated at 4° C. away from light for 30 min. The cells in each well were rinsed twice with 100 μL of pre-cooled PBS, and centrifuged at 500 g at 4° C. for 5 min, and then the supernatant was discarded. A fluorescent secondary antibody (PE Streptavidin, BD, Cat# 554061, 1:200) was added at 100 μL/well, and the cells were incubated at 4° C. away from light for 30 min. The cells in each well were rinsed twice with 200 μL of pre-cooled PBS, and centrifuged at 500 g at 4° C. for 5 min, and then the supernatant was discarded. Finally, the cells in each well were resuspended in 200 μL of pre-cooled PBS, the fluorescence signal values were read using a BD FACS CANTOII, and the IC₅₀ values were calculated.

T2 sequence (Q15116 25-288): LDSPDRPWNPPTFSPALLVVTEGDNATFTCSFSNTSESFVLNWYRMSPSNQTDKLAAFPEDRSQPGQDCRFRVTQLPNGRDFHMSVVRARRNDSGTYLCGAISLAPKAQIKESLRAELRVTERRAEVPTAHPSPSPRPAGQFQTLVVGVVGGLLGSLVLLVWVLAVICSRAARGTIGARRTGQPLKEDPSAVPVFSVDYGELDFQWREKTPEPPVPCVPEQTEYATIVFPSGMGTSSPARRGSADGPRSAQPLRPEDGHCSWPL

| IC50 [nM] | Maximum inhibition rate (%) | Binder |
| --- | --- | --- |
| 54.5 | 97 | B19 |
| 7.7 | 67.5 | B20 |
| 4.79 | 62.2 | B21 |
| 37.5 | 92.1 | B22 |

Target: T2, Human PD-1 expressed on CHO-K1 cells …
Experiment: FACS, CHO-K1/hPD-1 cells
Protocol: (§4) In order to investigate the in vitro binding activity of the PD-1 antigen-binding proteins to human/cynomolgus monkey PD-1, the binding assay at the cellular level was performed using a CHO-K1 cell strain overexpressing human or cynomolgus monkey PD-1 (CHO-K1/hPD-1 or CHO-K1/cyno PD-1, from GenScript). Briefly, the CHO-K1-hPD-1 cells were digested and resuspended in an F-12K complete medium, and the cell density was adjusted to 1×10⁶ cells/mL. The cells were seeded in a 96-well V-bottom plate (Corning, Cat#3894) at 100 μL/well, followed by the addition of the test antigen-binding proteins with concentrations 2-fold of final concentrations obtained by 5-fold gradient dilution were each added at 100 μL/well. The mixtures were well mixed. The maximum final concentration of the antigen-binding proteins was 100 nM or 300 nM. A total of 8-11 concentrations were set. hIgG was used as a control. The cells were incubated at 4° C. for 1 h away from light. Thereafter, the cells in each well were rinsed twice with 100 μL of pre-cooled PBS, and centrifuged at 500 g at 4° C. for 5 min, and then the supernatant was discarded. Then 100 μL of a fluorescent secondary antibody (goat anti-human IgG (H+L) secondary antibody, Alexa Fluor® 488 conjugate, Invitrogen, Cat #A11013, 1:1000) was added to each well. The plate was incubated away from light at 4° C. for 30 min. The cells in each well were rinsed twice with 200 μL of pre-cooled PBS, and centrifuged at 500 g at 4° C. for 5 min, and then the supernatant was discarded. Finally, the cells in each well were resuspended in 200 μL of pre-cooled PBS, and the fluorescence signal values were read using a BD FACS CANTOII.

| EC50 [nM] | MFI Maximum | Binder |
| --- | --- | --- |
| 48.9 | 4150 | B1 |
| 12.2 | 6560 | B5 |
| 18.4 | 5720 | B7 |
| 27.6 | 4320 | B8 |
| 17.9 | 4080 | B9 |
| 10.5 | 4530 | B10 |
| 22.1 | 6900 | B11 |
| 15.4 | 6350 | B14 |
| 19 | 6510 | B15 |

Target: T2, Human PD-1 expressed on CHO-K1 cells …
Experiment: FACS, CHO-K1/hPD-1 cells
Remark: another data set of the same source
Protocol: as §4

| EC50 [nM] | MFI Maximum | Binder |
| --- | --- | --- |
| 48.9 | 4150 | B1 |
| 110 | 13300 | B2 |
| 20.6 | 953000 | B19 |
| 18 | 10500 | B3 |
| 70.9 | 12400 | B4 |
| 10.9 | 11100 | B6 |
| 29.3 | 955000 | B20 |
| 382 | 18000 | B13 |
| 22.9 | 11600 | B16 |
| 25.6 | 1.04e+06 | B21 |
| 27.6 | 11700 | B17 |
| 22.4 | 10400 | B18 |
| 18.5 | 959000 | B22 |

Target: T1, Human PD-1 protein with histidine and …
Experiment: BLI; ratio of kdis, apparently PR005090 over the variant
Protocol: as §1, §2, §3

| kdis ratio | Binder |
| --- | --- |
| 14.7 | B2 |
| 21.8 | B3 |
| 20.6 | B4 |
| 4.25 | B5 |
| 23.7 | B6 |
| 2.9 | B7 |
| 1.91 | B8 |
| 1.46 | B9 |
| 1.8 | B10 |
| 6.61 | B11 |
| 1.89 | B12 |
| 41.7 | B13 |
| 2.51 | B14 |
| 3.8 | B15 |
| 25.2 | B16 |
| 20 | B17 |
